± gives the uncertainty stated by the source.
Assay: protein stability index of a GFP-peptide fusion (yeast GPS) (PSI 1-4); higher = more stable; sorted into four equal gates, so the index is relative within each strain
Procedure, shortened: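 Tiled 17-residue peptides from yeast proteins were fused downstream of GFP on a plasmid that also expresses Cherry, and the pooled library was carried in yeast. Mid-log cultures grown in leucine-free medium were sorted into four equal gates by GFP/Cherry fluorescence ratio. Plasmids from each gate were PCR-amplified and Illumina-sequenced, and reads were assigned to strains by barcodes. Each peptide's protein stability index is the sum, over gates, of the gate's read frequency multiplied by its gate number.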

Row | Sequence | protein stability index (doa10∆) | protein stability index (pdr5∆) | protein stability index (san1∆) | protein stability index (ubr1∆)
1 | ENDHERGFFHLNEALLQ [CSN12] | 3.08 ± 0.075 | 2.91 ± 0.062 | 3.28 ± 0.09 | 3.06 ± 0.082
2 | LLVLLQDVIKVLYQSNA [SWP82] | 1.84 ± 0.074 | 2.03 ± 0.084 | 1.72 ± 0.12 | 1.7 ± 0.054
3 | IWNDVVYGEGTSRVTGI [YJL039C/NUP192] | 3.35 ± 0.15 | 3.4 ± 0.17 | – | 3.45 ± 0.091
4 | LGYKAKQGFVIYRVRVR [RPL15A] | 2.22 ± 0.1 | 2.04 ± 0.11 | 2.06 ± 0.15 | 1.84 ± 0.11
5 | IGAELKREESESAAVYN [SNF2] | 2.99 ± 0.087 | 3.08 ± 0.091 | 2.84 ± 0.071 | 3.21 ± 0.071
6 | IVAAGGGSGAATFSVSQ [CSL4] | – | 3.47 ± 0.2 | – | –
7 | QPKLNPMASSSSFGSES [SWI1] | 2.85 ± 0.064 | 3.28 ± 0.069 | 3.12 ± 0.048 | 2.92 ± 0.057
8 | MLETAGFSMNNPYNIVP [SMC3] | 3.17 ± 0.11 | 3.18 ± 0.09 | 3.19 ± 0.07 | 3.09 ± 0.051
9 | NSGKQQYYRGLPLYEKN [SWP82] | 2.56 ± 0.089 | 2.5 ± 0.06 | 2.9 ± 0.075 | 3.01 ± 0.043
10 | SLVIIILVKRYSIEMKP [ECM29] | 1.15 ± 0.049 | 1.38 ± 0.04 | 1.59 ± 0.069 | 2.04 ± 0.044
11 | SEDHSFRKVKLRVDEVQ [RPS1B] | 3.05 ± 0.094 | 2.96 ± 0.15 | 2.66 ± 0.091 | 3.1 ± 0.067
12 | QGLNILEWLENPSNTPD [FAS1] | 3.2 ± 0.12 | 3.06 ± 0.086 | 3.41 ± 0.051 | 3.14 ± 0.058
13 | NSFYYTSLLYLSTLEPS [RPN9] | 1.82 ± 0.05 | 1.56 ± 0.046 | 1.47 ± 0.1 | 1.77 ± 0.041
14 | EEDYNEFNSIDRVIFRV [PRP8] | 3.27 ± 0.1 | 3.17 ± 0.11 | 3.02 ± 0.19 | 2.94 ± 0.068
15 | NDDKKTEPDKPAFSFNS [YJL041W/NSP1] | 2.89 ± 0.047 | 3.12 ± 0.039 | 3.07 ± 0.032 | 3.202 ± 0.029
16 | LALQRGATVFVNHLLLF [DPB4] | 1.42 ± 0.046 | 1.26 ± 0.036 | 1.25 ± 0.083 | 1.34 ± 0.039
17 | LNHVVSLIENKKAKLVL [RPL8B] | 2.46 ± 0.088 | 3.54 ± 0.17 | 2.98 ± 0.1 | 2.83 ± 0.1
18 | GTFTADYSKPNLPPHYA [SSN2] | 2.23 ± 0.055 | 2.28 ± 0.049 | 2.16 ± 0.068 | 2.15 ± 0.039
19 | GGESDSALILMYKGFGL [UBP6] | 3.37 ± 0.07 | 3.41 ± 0.076 | 3.15 ± 0.085 | 3.29 ± 0.055
20 | ILNDIETLEHNPVALEQ [BRR2] | 2.95 ± 0.08 | 3.25 ± 0.1 | 3.18 ± 0.079 | 3.13 ± 0.077
21 | RALSIFSPDGHIFQVEY [PRE6] | 2.97 ± 0.051 | 2.98 ± 0.05 | 3.04 ± 0.032 | 3.1 ± 0.032
22 | CKLFLADVFTDDDLFET [YCG1] | 3.03 ± 0.08 | 3.06 ± 0.051 | 3.03 ± 0.048 | 2.59 ± 0.038
23 | PTPVVTISEKEQDILDL [SSN2] | 2.76 ± 0.1 | 2.02 ± 0.095 | 2.61 ± 0.12 | 2.73 ± 0.099
24 | ADTIDHDELIDSIPRDV [YGL172W/NUP49] | 2.95 ± 0.098 | 3.24 ± 0.085 | 3.07 ± 0.056 | 2.88 ± 0.075
25 | SMDTKKKHKQKKVLEID [BRN1] | 3.36 ± 0.063 | 3.32 ± 0.057 | 3.32 ± 0.039 | 3.33 ± 0.044
26 | GHNDWVSQVRVVPNEKA [ASC1] | 2.3 ± 0.1 | 2.85 ± 0.076 | 2.94 ± 0.066 | 2.69 ± 0.065
27 | QESLVKLFTTNELMRWP [RPN5] | 2.96 ± 0.21 | 3.72 ± 0.3 | 3.15 ± 0.12 | 2.91 ± 0.13

Row | Sequence | protein stability index (doa10∆) | protein stability index (pdr5∆) | protein stability index (san1∆) | protein stability index (ubr1∆)
28 | QLNEERSRYRREIDALK [YIL149C/MLP2] | 3.44 ± 0.092 | 3.25 ± 0.065 | 3.24 ± 0.045 | 3.25 ± 0.035
29 | SIFAMGLCGAGTNNARL [RPN1] | 2.44 ± 0.058 | 1.27 ± 0.043 | 1.24 ± 0.094 | 1.12 ± 0.039
30 | FVFTNEPLTEIKNVIVS [RPP0] | 1.84 ± 0.057 | 2.68 ± 0.089 | 3.12 ± 0.076 | 2.73 ± 0.077
31 | DLKAQFQELDSKKQRNN [RPN9] | 3.21 ± 0.088 | 3.2 ± 0.08 | 3.09 ± 0.078 | 3.33 ± 0.052
32 | RMNTIITHPGKMELVYV [SIR4] | – | – | – | 1.21 ± 0.24
33 | PFDDDEPPLSYEQHIEN [PRP8] | 2.42 ± 0.058 | 2.86 ± 0.092 | 3.06 ± 0.07 | 2.31 ± 0.053
34 | QLLEKAPIPIREDIDDP [BRR2] | 2.64 ± 0.064 | 2.55 ± 0.066 | 2.37 ± 0.088 | 1.92 ± 0.058
35 | SPVELSRMFEEVSGSIQ [SMC1] | 2.9 ± 0.06 | 2.16 ± 0.052 | 2.38 ± 0.065 | 3.02 ± 0.062
36 | LATLLGHNDWVSQVRVV [ASC1] | 1.94 ± 0.085 | 2.37 ± 0.082 | 1.89 ± 0.1 | 1.8 ± 0.047
37 | VDLLQFPWLNAIKYRPT [POP3] | 2.33 ± 0.07 | 2.42 ± 0.091 | 2.36 ± 0.15 | 1.84 ± 0.11
38 | APQLFPYGSFHQQQLQQ [DSN1] | 2.77 ± 0.076 | 2.84 ± 0.09 | 2.77 ± 0.087 | 3.15 ± 0.069
39 | ADNDGPRINNISAEDRA [SNF2] | 2.79 ± 0.15 | 3.16 ± 0.18 | 2.9 ± 0.1 | 1.52 ± 0.24
40 | DISATQLPKQLWRNFCR [ITC1] | 2.61 ± 0.054 | 2.68 ± 0.048 | 2.71 ± 0.035 | 2.8 ± 0.036
41 | LLVQKRFKYAPGTIVLY [RPS3] | 2.51 ± 0.12 | 1.87 ± 0.073 | 1.72 ± 0.13 | 1.31 ± 0.039
42 | KESDLLEETRTTIGDTT [BRN1] | 2.47 ± 0.051 | 3.18 ± 0.064 | 2.99 ± 0.053 | 3.19 ± 0.055
43 | EKPAPVRTHMRNMIIVP [RPS15] | 1.13 ± 0.064 | 1.17 ± 0.081 | 1.21 ± 0.19 | 1.14 ± 0.095
44 | TVMFFYHNKHMMCDFGT [DIB1] | 2.58 ± 0.049 | 2.51 ± 0.046 | 2.6 ± 0.046 | 2.54 ± 0.032
45 | DFYVVMNRPGARVTRRK [RPL11A] | 3.22 ± 0.17 | 2.86 ± 0.15 | 3.28 ± 0.061 | 3.32 ± 0.11
46 | RLNYLYQISAYQTRARQ [RPR2] | 1.56 ± 0.034 | 1.84 ± 0.037 | 1.85 ± 0.054 | 1.89 ± 0.035
47 | QVNIRFLLHNSEIIDTN [SRB8] | 2.17 ± 0.059 | 2.71 ± 0.057 | 2.79 ± 0.055 | 2.7 ± 0.04
48 | SAFMKFSKAIEWDMLNV [BRR2] | 2.15 ± 0.07 | 1.9 ± 0.072 | 1.99 ± 0.081 | 2.04 ± 0.045
49 | MENTLGEGSTVNASVDV [SWI3] | – | – | – | 3.54 ± 0.21
50 | ISLYFNDILDELLCGMA [ECM29] | 1.64 ± 0.1 | 1.81 ± 0.069 | 2.04 ± 0.18 | 1.48 ± 0.06
51 | LIEFQPSQGVHYKVPTD [MED6] | 2.6 ± 0.066 | 2.98 ± 0.061 | 2.93 ± 0.062 | 2.93 ± 0.046
52 | LSPPEFLFHAISGREGL [RPO31] | 2.17 ± 0.047 | 1.79 ± 0.053 | 1.48 ± 0.14 | 1.63 ± 0.046
53 | ATYSNEFKCMSVITAQQ [YGL100W/SEH1] | 1.75 ± 0.053 | 1.48 ± 0.042 | 1.46 ± 0.085 | 2.01 ± 0.031

Source: the supplement of paper PMC9732359
